Assay results published in US20200392227A1 (LYVGEN BIOPHARMA, published 2020).
Read-outs that look alike come from different tables or passages of the source. Values belong to the binder of their own block, whether it stands above or below them.

Tests used:
Test in all cases: BLI
[1] = target: T1, human FcRI protein (MednaBio, E1031) (human, UniProt P12314 16-288, limits assumed)
T1 construct: Bought; loaded on anti-penta-HIS biosensors; also called FcγRI

[2] = target: T2, human FcRn protein (MednaBio, E1032) (human, UniProt P55899 24-297; P61769 21-119)
T2 construct: Bought; assays at pH 6

[3] = target: T3, human FcRIIIA-V158 protein (MednaBio, E1035) (human, UniProt P08637 17-208)
T3 construct: Bought; also called FcγRIIIA(V); FcgRIIIA(V)
T3 sequence (P08637 17-208 F176V): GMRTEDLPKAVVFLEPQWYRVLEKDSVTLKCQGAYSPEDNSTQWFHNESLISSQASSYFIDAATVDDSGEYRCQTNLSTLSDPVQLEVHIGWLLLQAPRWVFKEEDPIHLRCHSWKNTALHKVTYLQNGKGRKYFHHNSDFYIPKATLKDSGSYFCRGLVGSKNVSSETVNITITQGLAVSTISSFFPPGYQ

[4] = target: T4, human FcRIIA protein (MednaBio, E1033) (human, UniProt P12318 34-218, limits assumed)
T4 construct: Bought; also called FcγRIIA
T4 sequence (looked up): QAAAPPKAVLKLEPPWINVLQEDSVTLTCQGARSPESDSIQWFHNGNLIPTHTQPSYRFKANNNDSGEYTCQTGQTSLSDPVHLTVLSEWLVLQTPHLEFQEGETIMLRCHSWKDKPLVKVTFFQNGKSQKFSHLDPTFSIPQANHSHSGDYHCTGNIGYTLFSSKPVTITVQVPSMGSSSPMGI

[5] = target: T5, human FcRIIB/C protein (MednaBio, E1034) (human, UniProt P31994 43-217, limits assumed)
T5 construct: Bought as FcRIIB/C; also called FcγRIIB; CD32B
T5 sequence (looked up): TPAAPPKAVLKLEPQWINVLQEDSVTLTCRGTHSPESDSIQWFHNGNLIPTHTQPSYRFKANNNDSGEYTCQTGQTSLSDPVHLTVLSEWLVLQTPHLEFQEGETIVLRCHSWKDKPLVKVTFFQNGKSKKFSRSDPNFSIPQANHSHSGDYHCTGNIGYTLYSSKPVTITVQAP

[6] = target: T1, human FcRI protein (MednaBio, E1031); remark: listed apart in the source
[7] = target: T2, human FcRn protein (MednaBio, E1032); remark: listed apart in the source
[8] = target: T3, human FcRIIIA-V158 protein (MednaBio, …); remark: listed apart in the source
[9] = target: T4, human FcRIIA protein (MednaBio, E1033); remark: listed apart in the source
[10] = target: T5, human FcRIIB/C protein (MednaBio, E1034); remark: listed apart in the source
[11] = target: T1, human FcRI protein (MednaBio, E1031); remark: listed apart in the source
Outline: (§1)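 Binding was measured by biolayer interferometry on an Octet Red96 System. Commercial human Fc receptor proteins were loaded at 20 μg/mL onto anti-penta-HIS biosensors, which were then dipped into an 8-point 1:3 dilution series of test IgG starting at 300 nM in PBS with 0.1% BSA and 0.02% Tween-20, at pH 7.2 for Fcγ receptors and pH 6 for FcRn. Kd, kon and koff were obtained by global fitting, with data fitted to a 1:1 binding model.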

[12] = target: T1, human FcRI protein (MednaBio, E1031); remark: listed apart in the source
Outline: as §1

[13] = target: T2, human FcRn protein (MednaBio, E1032); remark: listed apart in the source
Outline: as §1

[14] = target: T3, human FcRIIIA-V158 protein (MednaBio, …); remark: listed apart in the source
Outline: as §1

[15] = target: T4, human FcRIIA protein (MednaBio, E1033); remark: listed apart in the source
Outline: as §1

[16] = target: T5, human FcRIIB/C protein (MednaBio, E1034); remark: listed apart in the source
Outline: as §1

T1 sequence (P12314 16-288 limits assumed): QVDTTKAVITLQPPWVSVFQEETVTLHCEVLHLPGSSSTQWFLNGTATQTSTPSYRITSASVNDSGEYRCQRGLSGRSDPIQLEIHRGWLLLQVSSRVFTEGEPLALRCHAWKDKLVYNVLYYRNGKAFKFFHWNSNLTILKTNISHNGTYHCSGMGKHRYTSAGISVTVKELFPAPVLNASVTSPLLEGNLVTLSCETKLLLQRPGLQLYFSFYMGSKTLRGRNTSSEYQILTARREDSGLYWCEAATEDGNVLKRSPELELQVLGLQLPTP

Kd [1]: 5.6 nM | koff [1]: 0.0012 s⁻¹ | kon [1]: 220000 M⁻¹ s⁻¹ | Kd [2]: 16 nM | koff [2]: 0.008 s⁻¹ | kon [2]: 480000 M⁻¹ s⁻¹ | Kd [3]: 60 nM | koff [3]: 0.027 s⁻¹ | kon [3]: 450000 M⁻¹ s⁻¹ | Kd [4]: 56 nM | koff [4]: 0.032 s⁻¹ | kon [4]: 570000 M⁻¹ s⁻¹ | Kd [5]: 130 nM | koff [5]: 0.016 s⁻¹ | kon [5]: 120000 M⁻¹ s⁻¹ | Kd [6]: 5.6 nM | koff [6]: 0.0012 s⁻¹ | kon [6]: 220000 M⁻¹ s⁻¹ | Kd [7]: 16 nM | koff [7]: 0.008 s⁻¹ | kon [7]: 480000 M⁻¹ s⁻¹ | Kd [8]: 60 nM | koff [8]: 0.027 s⁻¹ | kon [8]: 450000 M⁻¹ s⁻¹ | Kd [9]: 56 nM | koff [9]: 0.032 s⁻¹ | kon [9]: 570000 M⁻¹ s⁻¹ | Kd [10]: 130 nM | koff [10]: 0.016 s⁻¹ | kon [10]: 120000 M⁻¹ s⁻¹ | Kd [11]: 5.6 nM | koff [11]: 0.0012 s⁻¹ | kon [11]: 220000 M⁻¹ s⁻¹ | Kd [12]: 5.6 nM | koff [12]: 0.0012 s⁻¹ | kon [12]: 220000 M⁻¹ s⁻¹ | Kd [13]: 16 nM | koff [13]: 0.008 s⁻¹ | kon [13]: 480000 M⁻¹ s⁻¹ | Kd [14]: 60 nM | koff [14]: 0.027 s⁻¹ | kon [14]: 450000 M⁻¹ s⁻¹ | Kd [15]: 56 nM | koff [15]: 0.032 s⁻¹ | kon [15]: 570000 M⁻¹ s⁻¹ | Kd [16]: 130 nM | koff [16]: 0.016 s⁻¹ | kon [16]: 120000 M⁻¹ s⁻¹
B1: wild-type human IgG1 control (antibody)
heavy: not shown
light: SYELTQPPSVSVSPGQTASITCSGDNIGDQYAHWYQQKPGQSPVLVIYQDKNRPSGIPERFSGSNSGNTATLTISGTQAMDEADYYCATYTGFGSLAVFGGGTKLTVLGQPKAAPSVTLFPPSSEELQANKATLVCLISDFYPGAVTVAWKADSSPVKAGVETTTPSKQSNNKYAASSYLSLTPEQWKSHRSYSCQVTHEGSTVEKTVAPTECS
notes: Control IgG

Kd [1]: 4.8 nM | koff [1]: 0.0017 s⁻¹ | kon [1]: 360000 M⁻¹ s⁻¹ | Kd [2]: 18 nM | koff [2]: 0.012 s⁻¹ | kon [2]: 640000 M⁻¹ s⁻¹ | Kd [3]: 550 nM | koff [3]: 0.092 s⁻¹ | kon [3]: 170000 M⁻¹ s⁻¹ | Kd [4]: 400 nM | koff [4]: 0.055 s⁻¹ | kon [4]: 140000 M⁻¹ s⁻¹ | Kd [5]: 400 nM | koff [5]: 0.05 s⁻¹ | kon [5]: 140000 M⁻¹ s⁻¹ | Kd [6]: 4.8 nM | koff [6]: 0.0017 s⁻¹ | kon [6]: 360000 M⁻¹ s⁻¹ | Kd [7]: 18 nM | koff [7]: 0.012 s⁻¹ | kon [7]: 640000 M⁻¹ s⁻¹ | Kd [8]: 550 nM | koff [8]: 0.092 s⁻¹ | kon [8]: 170000 M⁻¹ s⁻¹ | Kd [9]: 400 nM | koff [9]: 0.055 s⁻¹ | kon [9]: 140000 M⁻¹ s⁻¹ | Kd [10]: 400 nM | koff [10]: 0.05 s⁻¹ | kon [10]: 140000 M⁻¹ s⁻¹ | Kd [11]: 4.8 nM | koff [11]: 0.0017 s⁻¹ | kon [11]: 360000 M⁻¹ s⁻¹ | Kd [12]: 4.8 nM | koff [12]: 0.0017 s⁻¹ | kon [12]: 360000 M⁻¹ s⁻¹ | Kd [13]: 18 nM | koff [13]: 0.012 s⁻¹ | kon [13]: 640000 M⁻¹ s⁻¹ | Kd [14]: 550 nM | koff [14]: 0.092 s⁻¹ | kon [14]: 170000 M⁻¹ s⁻¹ | Kd [15]: 400 nM | koff [15]: 0.055 s⁻¹ | kon [15]: 140000 M⁻¹ s⁻¹ | Kd [16]: 400 nM | koff [16]: 0.05 s⁻¹ | kon [16]: 140000 M⁻¹ s⁻¹
B2: wild-type human IgG4 control (antibody)
heavy: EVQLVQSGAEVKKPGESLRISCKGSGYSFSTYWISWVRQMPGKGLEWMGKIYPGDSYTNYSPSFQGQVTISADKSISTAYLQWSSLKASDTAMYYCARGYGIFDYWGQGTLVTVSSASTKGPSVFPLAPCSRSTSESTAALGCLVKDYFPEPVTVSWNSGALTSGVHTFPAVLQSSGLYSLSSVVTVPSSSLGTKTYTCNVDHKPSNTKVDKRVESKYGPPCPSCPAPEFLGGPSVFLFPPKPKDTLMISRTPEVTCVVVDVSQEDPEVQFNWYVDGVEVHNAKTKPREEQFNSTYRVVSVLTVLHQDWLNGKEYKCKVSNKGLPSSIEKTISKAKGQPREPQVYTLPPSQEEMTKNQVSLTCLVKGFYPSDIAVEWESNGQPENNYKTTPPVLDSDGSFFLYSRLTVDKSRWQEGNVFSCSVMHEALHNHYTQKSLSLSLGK
light: SYELTQPPSVSVSPGQTASITCSGDNIGDQYAHWYQQKPGQSPVLVIYQDKNRPSGIPERFSGSNSGNTATLTISGTQAMDEADYYCATYTGFGSLAVFGGGTKLTVLGQPKAAPSVTLFPPSSEELQANKATLVCLISDFYPGAVTVAWKADSSPVKAGVETTTPSKQSNNKYAASSYLSLTPEQWKSHRSYSCQVTHEGSTVEKTVAPTECS
notes: Control IgG
